From publication PMC7842947 come the findings set out here.

The target in this experiment is chondroitin sulfate proteoglycan 4 (CSPG4), endogenous on HeLa cells (human (endogenous in HeLa)) (UniProt Q6UVK1).
Chain of UniProt Q6UVK1 (Q6UVK1 30-2322): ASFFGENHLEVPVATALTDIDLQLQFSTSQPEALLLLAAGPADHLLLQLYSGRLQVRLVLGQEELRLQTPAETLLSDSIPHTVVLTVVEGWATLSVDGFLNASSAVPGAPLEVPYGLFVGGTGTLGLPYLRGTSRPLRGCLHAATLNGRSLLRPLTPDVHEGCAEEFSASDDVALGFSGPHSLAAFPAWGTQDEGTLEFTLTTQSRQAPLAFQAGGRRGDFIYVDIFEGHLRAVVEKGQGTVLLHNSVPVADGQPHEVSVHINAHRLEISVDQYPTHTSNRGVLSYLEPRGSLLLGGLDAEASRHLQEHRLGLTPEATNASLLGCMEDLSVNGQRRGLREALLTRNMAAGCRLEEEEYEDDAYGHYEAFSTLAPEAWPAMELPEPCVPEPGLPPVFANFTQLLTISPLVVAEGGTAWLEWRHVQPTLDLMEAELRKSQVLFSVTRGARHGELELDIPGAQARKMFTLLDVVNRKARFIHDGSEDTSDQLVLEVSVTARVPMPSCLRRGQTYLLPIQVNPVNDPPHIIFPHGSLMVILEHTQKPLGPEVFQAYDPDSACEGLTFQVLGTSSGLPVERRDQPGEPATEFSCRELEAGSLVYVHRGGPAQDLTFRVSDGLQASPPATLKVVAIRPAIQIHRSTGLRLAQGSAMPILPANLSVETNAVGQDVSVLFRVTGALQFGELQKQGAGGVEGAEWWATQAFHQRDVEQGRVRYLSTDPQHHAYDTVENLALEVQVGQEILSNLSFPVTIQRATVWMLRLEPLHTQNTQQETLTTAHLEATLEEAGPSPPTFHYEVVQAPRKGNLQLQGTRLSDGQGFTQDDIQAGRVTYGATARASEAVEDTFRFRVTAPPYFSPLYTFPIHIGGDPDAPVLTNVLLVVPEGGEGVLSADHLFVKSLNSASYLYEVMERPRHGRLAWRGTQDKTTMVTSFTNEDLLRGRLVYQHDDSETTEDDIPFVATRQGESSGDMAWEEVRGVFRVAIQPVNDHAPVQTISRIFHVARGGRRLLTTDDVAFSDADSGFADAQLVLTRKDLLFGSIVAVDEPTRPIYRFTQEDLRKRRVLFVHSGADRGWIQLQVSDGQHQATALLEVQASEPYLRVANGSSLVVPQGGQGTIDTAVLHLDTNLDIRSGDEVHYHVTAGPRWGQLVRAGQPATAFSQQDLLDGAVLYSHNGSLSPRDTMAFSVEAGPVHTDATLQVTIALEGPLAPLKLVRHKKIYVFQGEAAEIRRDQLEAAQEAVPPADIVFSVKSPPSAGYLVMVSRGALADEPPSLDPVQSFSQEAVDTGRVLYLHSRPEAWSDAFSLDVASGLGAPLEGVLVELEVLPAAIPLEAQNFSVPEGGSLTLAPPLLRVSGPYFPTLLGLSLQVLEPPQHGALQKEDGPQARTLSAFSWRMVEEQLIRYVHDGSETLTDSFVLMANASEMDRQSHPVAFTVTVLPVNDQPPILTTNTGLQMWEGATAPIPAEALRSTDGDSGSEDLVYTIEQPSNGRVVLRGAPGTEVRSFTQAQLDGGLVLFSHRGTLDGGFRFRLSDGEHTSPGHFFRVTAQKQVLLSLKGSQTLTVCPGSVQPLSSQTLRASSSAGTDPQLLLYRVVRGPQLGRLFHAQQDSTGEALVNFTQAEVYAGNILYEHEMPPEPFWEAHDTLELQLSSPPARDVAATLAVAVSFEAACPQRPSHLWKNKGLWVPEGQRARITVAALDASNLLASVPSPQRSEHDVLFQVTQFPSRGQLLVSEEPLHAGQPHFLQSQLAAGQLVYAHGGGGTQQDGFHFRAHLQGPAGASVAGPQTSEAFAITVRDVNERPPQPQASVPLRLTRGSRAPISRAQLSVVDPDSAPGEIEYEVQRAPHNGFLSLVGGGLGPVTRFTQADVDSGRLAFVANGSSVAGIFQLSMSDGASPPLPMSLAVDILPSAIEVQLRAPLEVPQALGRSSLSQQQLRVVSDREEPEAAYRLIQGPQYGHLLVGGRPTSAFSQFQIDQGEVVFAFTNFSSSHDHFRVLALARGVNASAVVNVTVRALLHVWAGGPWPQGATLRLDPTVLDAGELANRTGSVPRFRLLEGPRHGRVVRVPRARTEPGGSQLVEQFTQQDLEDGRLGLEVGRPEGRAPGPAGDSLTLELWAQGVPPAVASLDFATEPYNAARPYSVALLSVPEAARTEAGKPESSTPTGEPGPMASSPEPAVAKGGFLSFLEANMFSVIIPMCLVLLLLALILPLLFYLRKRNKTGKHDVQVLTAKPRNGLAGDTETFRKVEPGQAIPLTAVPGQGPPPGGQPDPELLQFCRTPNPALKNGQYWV

For the substance “Clostridioides difficile toxin B variant 2 (TcdB2), full length, reference sequence from strain CD196 (natural protein)”, the CR50, cytopathic cell-rounding assay on HeLa FZD1/2/7-/- cells is 0.06 pM.
